Results taken from paper PMC6049616.

Target: semiSWEET
Assay: native MS

Q: For semiSWEET (natural protein), which stoichiometry N is on record?
A: 2
